Biological target: Ku70 (endogenous full length protein of the human HEK 293 reporter cells) (UniProt P12956)
Test: cell-based or functional assay

truncated Ku80 protein, residues 427-732 of mouse Ku80, expressed from pCAG-Ku80(427-732)-bpA (from UniProt P27641 427-732)
fold increase of homologous recombination in 293Rab-Rep#4 reporter cells against transfection without the Ku80 fragment: 2 fold
